Laboratory results reported in patent publication US20210388081A1 (Memorial Sloan Kettering, published 2021).
Where a chain is given by its changes, count along the chain named.

T1: FcRL1, overexpressed on 3T3 cells (UniProt Q96LA6 17-429, limits assumed)
T1 construct: whole, on cells
T1 sequence (looked up): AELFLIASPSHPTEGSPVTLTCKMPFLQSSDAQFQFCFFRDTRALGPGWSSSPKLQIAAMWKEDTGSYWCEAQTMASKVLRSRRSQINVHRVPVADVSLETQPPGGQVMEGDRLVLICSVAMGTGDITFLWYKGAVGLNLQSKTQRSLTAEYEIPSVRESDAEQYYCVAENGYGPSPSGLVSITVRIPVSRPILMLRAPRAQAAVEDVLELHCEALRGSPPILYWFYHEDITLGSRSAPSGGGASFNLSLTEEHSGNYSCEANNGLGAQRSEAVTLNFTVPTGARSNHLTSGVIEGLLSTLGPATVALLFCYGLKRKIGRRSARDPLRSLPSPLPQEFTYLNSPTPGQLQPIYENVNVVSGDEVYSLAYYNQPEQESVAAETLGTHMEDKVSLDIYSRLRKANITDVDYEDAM

T2: FcRL2, overexpressed on 3T3 cells (UniProt Q96LA5 20-508, limits assumed)
T2 construct: whole, on cells
T2 sequence (looked up): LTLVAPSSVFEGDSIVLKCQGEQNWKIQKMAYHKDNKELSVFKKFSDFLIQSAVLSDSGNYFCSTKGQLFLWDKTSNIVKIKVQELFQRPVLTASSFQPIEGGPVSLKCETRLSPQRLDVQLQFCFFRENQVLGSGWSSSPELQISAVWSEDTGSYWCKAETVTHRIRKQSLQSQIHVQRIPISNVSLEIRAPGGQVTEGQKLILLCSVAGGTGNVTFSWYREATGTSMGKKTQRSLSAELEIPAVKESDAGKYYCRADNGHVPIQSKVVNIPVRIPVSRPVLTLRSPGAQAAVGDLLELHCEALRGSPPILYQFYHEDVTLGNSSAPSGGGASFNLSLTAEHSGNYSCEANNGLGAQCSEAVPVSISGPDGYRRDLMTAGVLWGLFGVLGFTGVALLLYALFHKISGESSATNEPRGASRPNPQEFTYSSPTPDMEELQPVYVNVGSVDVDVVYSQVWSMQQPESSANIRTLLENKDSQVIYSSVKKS

T3: Fc Receptor-like 5 (FcRL5), full length, overexpressed on 3T3 or Raji cells (human, UniProt Q96RD9 16-977)
T3 construct: also called 3T3-FcRL5
T3 sequence: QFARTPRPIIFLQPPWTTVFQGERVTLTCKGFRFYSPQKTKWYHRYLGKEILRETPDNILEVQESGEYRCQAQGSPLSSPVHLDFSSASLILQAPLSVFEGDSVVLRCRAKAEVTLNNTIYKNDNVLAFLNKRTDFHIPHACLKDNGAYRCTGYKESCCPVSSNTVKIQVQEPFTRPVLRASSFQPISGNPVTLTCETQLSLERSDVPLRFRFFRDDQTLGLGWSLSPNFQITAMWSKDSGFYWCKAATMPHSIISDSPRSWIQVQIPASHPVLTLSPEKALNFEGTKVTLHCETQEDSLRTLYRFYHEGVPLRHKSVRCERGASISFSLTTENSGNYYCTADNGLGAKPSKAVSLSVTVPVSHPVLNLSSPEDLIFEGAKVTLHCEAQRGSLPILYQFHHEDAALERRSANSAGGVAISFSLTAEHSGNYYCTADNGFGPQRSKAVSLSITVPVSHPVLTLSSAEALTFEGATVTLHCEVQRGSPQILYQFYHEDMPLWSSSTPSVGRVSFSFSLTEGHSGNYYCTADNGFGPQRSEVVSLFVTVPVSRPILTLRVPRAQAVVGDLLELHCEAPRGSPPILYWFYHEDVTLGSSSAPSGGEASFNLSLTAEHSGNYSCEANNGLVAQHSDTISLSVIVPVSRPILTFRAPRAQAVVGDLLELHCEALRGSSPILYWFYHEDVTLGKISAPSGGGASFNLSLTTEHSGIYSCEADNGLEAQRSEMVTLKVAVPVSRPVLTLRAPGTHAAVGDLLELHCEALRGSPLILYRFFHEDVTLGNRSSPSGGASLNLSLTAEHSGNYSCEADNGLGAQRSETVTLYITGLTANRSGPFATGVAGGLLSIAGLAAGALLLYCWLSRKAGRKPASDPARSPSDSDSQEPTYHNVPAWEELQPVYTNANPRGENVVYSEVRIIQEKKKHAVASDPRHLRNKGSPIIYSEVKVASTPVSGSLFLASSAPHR

T4: FcRL4, overexpressed on 3T3 cells (UniProt Q96PJ5 20-515, limits assumed)
T4 construct: whole, on cells
T4 sequence (looked up): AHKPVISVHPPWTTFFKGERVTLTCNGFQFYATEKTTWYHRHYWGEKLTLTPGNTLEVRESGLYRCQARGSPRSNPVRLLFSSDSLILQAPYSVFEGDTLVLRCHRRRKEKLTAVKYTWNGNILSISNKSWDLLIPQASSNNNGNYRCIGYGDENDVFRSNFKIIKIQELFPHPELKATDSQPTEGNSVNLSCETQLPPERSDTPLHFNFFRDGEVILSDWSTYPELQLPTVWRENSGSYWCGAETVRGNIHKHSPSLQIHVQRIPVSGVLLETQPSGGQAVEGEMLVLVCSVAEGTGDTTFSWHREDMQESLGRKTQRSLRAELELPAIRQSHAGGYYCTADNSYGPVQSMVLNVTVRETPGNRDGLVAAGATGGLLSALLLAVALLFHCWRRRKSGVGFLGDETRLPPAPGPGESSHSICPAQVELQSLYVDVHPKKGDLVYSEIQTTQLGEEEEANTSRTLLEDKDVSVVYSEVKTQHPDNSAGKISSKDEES

B1: ET200-101 (scFv)
scFv: QAVLTQPPSASGAPGQRVTVSCSGSNSNIGSNYVNWYQQFPGTAPKLLMYSSSQRPSGVPDRFSGSKSGTSASLAISGLHSEDEADYYCATWDDSLNAWVFGGGTKLTVLGSRGGGGSGGGGSGGGGSLEMAEVQLVQSGAEVRKPGASVKVSCKTSGYTFTWYAIHWVRQAPGQRLEWMGWINAGSGNTKYSQKFQGRVTLTRDTSASTAYMELSSLRSDDTAVYYCARPNNYGSGGDVFDIWGQGTMVTVSSTSGQAGQHHHHHHGAYPYDVPDYAS
notes: screened as phage clone; entry is VL-linker-VH-His tag-HA tag
B2: ET200-079 (scFv)
scFv: SYELTQPPSASGTPGQRVTISCSGSSSNIGSNYVYWYQQLPGTAPKLFIYRNNQRPSGVPDRFSGSKSGTSASLAISGLRSEDEADYYCAAWDDSLSGYLFGTGTKVTVLGSRGGGGSGGGGSGGGGSLEMAEVQLVESGGGLVQPGRSLRLSCAASGFTFDDYAMHWVRQAPGKGLEWVSGISWNSGSIGYADSVKGRFTISRDNAKNSLYLQMNSLRAEDTALYYCANGDSNYYYGMDVWGQGTTVTVSSTSGQAGQHHHHHHGAYPYDVPDYAS
notes: as for B1
B3: ET200-098 (scFv)
scFv: QPVLTQPPSVSKGLRQTATLTCTGNSNNVGNLGVAWLQQHQGHPPKLLSYRNNNRPSGISERLSASRSGNTASLTITGLQPEDEADYYCSAWDSSLSAWVFGGGTKLTVLGSRGGGGSGGGGSGGGGSLEMAEVQLVESGGVVVQPGGSLRLSCAASGFTFDDYAMHWVRQAPGKGLEWVSLINWDGGSTYYADSVKGRFTISRDNSKNSLYLQMNSLRAEDTALYYCAKGMGLRAFDYWGQGTLVTVSSTSGQAGQHHHHHHGAYPYDVPDYAS
notes: as for B1
B4: ET200-097 (scFv)
scFv: LPVLTQPPSVSVSPGQTAIITCSGDKLGEKYVSWYQQKPGQSPVLVIDQDTRRPSGIPERFSGSNSGTTATLTISGTQAMDEADYYCQAWDRGVVFGGGTKLTVLGSRGGGGSGGGGSGGGGSLEMAEVQLVESGGDLVQPGRSLRLSCAASGFTFNDYAMHWVRQAPGKGLEWVSGISWSGNNIGYADSVKGRFTISRDNAKNSLYLQMNSLRAEDTALYYCAKDSIRYGITWGGFDYWGQGTLVTVSSTSGQAGQHHHHHHGAYPYDVPDYAS
notes: as for B1
B5: ET200-081 (scFv)
scFv: QSALTQPASVSGSPGQSITISCTGTSSDIGGYNYVSWYQQHPGKAPKLMIYDVSNRPSGVSNRFSGSKSGNTASLTISGLQAEDEADYYCISYTRTWNPYVFGSGTKVTVLGSRGGGGSGGGGSGGGGSLEMAEVQLVQSGGGVVQPGGSLRLSCAASGFTFDDYAMHWVRQAPGKGLEWVSLISGDGGSTYYADSVKGRFTISRDNSKNSLYLQMNSLRTEDTALYYCAKDRAAAGYYYYGMDVWGQGTTVTVSSTSGQAGQHHHHHHGAYPYDVPDYAS
notes: as for B1
B6: ET200-006 (scFv)
scFv: SYVLTQPPSVSVAPGKTARITCGGNNIGSKSVHWYQQKPGQAPVVVIHYDSDRPSGIPERFSGSNSGNTATLTISRVEAGDEADYYCQVWDSSSDHPYVFGTGTKVTVLGSRGGGGSGGGGSGGGGSLEMAEVQLVQSGAEVKKPGASVKVSCKASGYTFTTYGISWVRQAPGQGLEWMGWINTYNGHTNYAQKLQGRATMTADTSTNTAYMELRSLRSDDTAVYYCARVIYGSGDYWGQGTLVTVSSTSGQAGQHHHHHHGAYPYDVPDYAS
notes: as for B1
B7: ET200-100 (scFv)
scFv: NFMLTQPHSVSESPGKTVTISCTRSSGSIASNFVQWYQQRPGSAPTPMIYEDNNRPPGVPDRFSASVDSSSNSASLTISGLKTEDEADYYCQSYDTSNVVFGGGTKLTVLGSRGGGGSGGGGSGGGGSLEMAEVQLVESGGGLVQPGGSLRLSCAASGFTFSSYEMNWVRQAPGKGLEWVSYISSSGSTIYYADSVKGRFTISRDNAKNSLYLQMNSLRAEDTAVYYCARWDYGMDVWGQGTTVTVSSTSGQAGQHHHHHHGAYPYDVPDYAS
notes: as for B1
B8: ET200-104 (scFv)
scFv: B7 scFv with F33Y, P47T, M48V, N54Q, P57S, A65G, V67I, T96S, L107V
notes: as for B1
B9: ET200-099 (scFv)
scFv: QSVLTQPPSASGTPGQRVTISCSGSSSNIGSNTVNWYQQLPGTAPKLLIYSNDQRPSGVPDRFSGSKSGTSASLAISGLQSEDEADYYCASWDDSLNGRYVFGTGTKVTVLGSRGGGGSGGGGSGGGGSLEMAQVQLVQSGAEVRKPGASVKVSCKTSGYTFSWYAIHWVRQAPGQRLEWMGWINAGNGNTKYSQKFQGRVSLTRDTSASTAYMELSSLRSDDTAVYYCARPDNYGSGGDVFDIWGQGTMVTVSSTSGQAGQHHHHHHGAYPYDVPDYAS
notes: as for B1

Target: T1, FcRL1, overexpressed on 3T3 cells
Experiment: phage clone on 3T3-FcRL1 cells

| Binder | binding result |
| --- | --- |
| B1 | no binding |
| B2 | no binding |
| B3 | no binding |
| B4 | no binding |
| B5 | no binding |
| B6 | no binding |
| B7 | no binding |
| B8 | no binding |
| B9 | no binding |

Target: T2, FcRL2, overexpressed on 3T3 cells
Experiment: phage clone on 3T3-FcRL2 cells

| Binder | binding result |
| --- | --- |
| B1 | no binding |
| B2 | no binding |
| B3 | no binding |
| B4 | no binding |
| B5 | no binding |
| B6 | no binding |
| B7 | no binding |
| B8 | no binding |
| B9 | no binding |

Target: SLAMF9 protein (UniProt Q96A28 19-236, limits assumed)
Sequence (Q96A28 19-236 limits assumed): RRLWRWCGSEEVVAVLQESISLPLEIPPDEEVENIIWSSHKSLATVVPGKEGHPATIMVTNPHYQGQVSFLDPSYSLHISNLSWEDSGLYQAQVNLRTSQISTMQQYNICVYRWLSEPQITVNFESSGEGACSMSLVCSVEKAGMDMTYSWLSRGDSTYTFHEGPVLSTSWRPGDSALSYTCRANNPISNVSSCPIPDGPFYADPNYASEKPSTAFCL
Experiment: phage clone on SLAMF9 protein

| Binder | binding result |
| --- | --- |
| B1 | no binding |
| B2 | no binding |
| B3 | no binding |
| B4 | no binding |
| B5 | no binding |
| B6 | no binding |
| B7 | no binding |
| B8 | no binding |
| B9 | no binding |

Target: T3, Fc Receptor-like 5 (FcRL5), full …
Experiment: phage clone screening on cells
Procedure, shortened: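 Cell-surface binding was read by flow cytometry using anti-M13 coat protein mAb and PE-labelled anti-mouse Ig. Selected scFv phage were screened on FcRL5-overexpressing 3T3 cells, with 3T3 lines bearing FcRL1, 2, 3, 4 or 6 as negative controls.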

| Binder | binding result |
| --- | --- |
| B1 | binds |
| B2 | binds |
| B3 | binds |
| B4 | binds |
| B5 | binds |
| B6 | binds |
| B7 | binds |
| B8 | binds |
| B9 | binds |

Target: T4, FcRL4, overexpressed on 3T3 cells
Experiment: phage clone on 3T3-FcRL4 cells

| Binder | binding result |
| --- | --- |
| B1 | no binding |
| B2 | no binding |
| B3 | no binding |
| B4 | no binding |
| B5 | no binding |
| B6 | no binding |
| B7 | no binding |
| B8 | no binding |
| B9 | no binding |
